Consider two molecules from publication PMC11024197 (2024).

This assay deals with T1, PEX14 NTD (1-104) (human, UniProt O75381 1-104).
T1 chain: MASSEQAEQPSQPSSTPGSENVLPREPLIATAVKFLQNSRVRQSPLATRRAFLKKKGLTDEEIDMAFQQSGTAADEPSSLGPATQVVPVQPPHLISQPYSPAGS
In words: ITC.

In turn, AQAEQWAAEFIQQQG [PEX5 W5 peptide] gave a Kd of 21 nM.

With ALSENWAQEFLAAGD [PEX5 W1 peptide], the Kd is 72 nM.

In general, Kd refers to the free concentration of one partner at which half of the binding sites on the other are occupied at equilibrium, for simple one-to-one binding. The low end stands for tighter binding, the high end for weaker binding.
